In publication PMC10397247:

T1: O2-bP
T1 chain: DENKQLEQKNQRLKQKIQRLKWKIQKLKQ

T2: O3-bP
T2 chain: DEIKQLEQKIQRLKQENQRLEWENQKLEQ

T3: O7-bP
T3 chain: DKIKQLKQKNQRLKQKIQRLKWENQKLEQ

T4: O6-bP
T4 chain: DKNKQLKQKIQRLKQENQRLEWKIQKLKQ

T5: O8-bP
T5 chain: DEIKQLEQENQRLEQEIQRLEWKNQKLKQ

T6: O5-bP
T6 chain: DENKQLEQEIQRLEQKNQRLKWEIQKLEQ

T7: O9-bP
T7 chain: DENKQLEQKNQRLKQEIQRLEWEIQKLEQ

T8: O4-bP
T8 chain: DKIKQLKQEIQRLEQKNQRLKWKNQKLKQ

T9: 4H3628-bH
T9 chain: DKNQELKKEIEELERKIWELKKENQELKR

T10: 4H906-bH
T10 chain: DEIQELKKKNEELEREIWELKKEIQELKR

T11: 4H626-bH
T11 chain: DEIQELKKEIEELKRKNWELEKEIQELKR

T12: 4H3613-bH
T12 chain: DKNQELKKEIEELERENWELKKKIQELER

T13: 4H3462-bH
T13 chain: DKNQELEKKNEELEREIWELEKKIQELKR

T14: 4H918-bH
T14 chain: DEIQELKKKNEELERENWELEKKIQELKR

T15: 4H3277-bH
T15 chain: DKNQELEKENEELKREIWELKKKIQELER

T16: 4H3175-bH
T16 chain: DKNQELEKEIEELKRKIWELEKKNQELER

T17: 4H3298-bH
T17 chain: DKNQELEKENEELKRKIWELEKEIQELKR

T18: 4H591-bH
T18 chain: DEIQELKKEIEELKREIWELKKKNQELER

T19: 4H3926-bH
T19 chain: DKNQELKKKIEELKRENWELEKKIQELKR

T20: 4H3497-bH
T20 chain: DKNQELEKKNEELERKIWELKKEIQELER


Columns and labels:
Experiment in all cases: two-hybrid library CCNG1;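 note: natural log of median RNA to DNA barcode read ratio; higher means stronger binding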
[1] = molecular target: T1, O2-bP
[2] = molecular target: T2, O3-bP
[3] = molecular target: T3, O7-bP
[4] = molecular target: T4, O6-bP
[5] = molecular target: T5, O8-bP
[6] = molecular target: T6, O5-bP
[7] = molecular target: T7, O9-bP
[8] = molecular target: T8, O4-bP
[9] = molecular target: T9, 4H3628-bH
[10] = molecular target: T10, 4H906-bH
[11] = molecular target: T11, 4H626-bH
[12] = molecular target: T12, 4H3613-bH
[13] = molecular target: T13, 4H3462-bH
[14] = molecular target: T14, 4H918-bH
[15] = molecular target: T15, 4H3277-bH
[16] = molecular target: T16, 4H3175-bH
[17] = molecular target: T17, 4H3298-bH
[18] = molecular target: T18, 4H591-bH
[19] = molecular target: T19, 4H3926-bH
[20] = molecular target: T20, 4H3497-bH

interaction score [1]	interaction score [2]	interaction score [3]	interaction score [4]	interaction score [5]	interaction score [6]	interaction score [7]	interaction score [8]	interaction score [9]	interaction score [10]	interaction score [11]	interaction score [12]	interaction score [13]	interaction score [14]	interaction score [15]	interaction score [16]	interaction score [17]	interaction score [18]	interaction score [19]	interaction score [20]	Binder
-1.2	-0.635	-0.723	-0.766	-1.21	-0.804	-1.4	-0.811	–	–	–	–	–	–	–	–	–	–	–	–	DENKQLEQKNQRLKQKIQRLKWKIQKLKQ [O2-bP]
–	–	–	–	–	–	–	–	-0.799	0.787	-1.62	-0.475	0.891	-1.69	-0.0103	0.103	-0.132	-2.15	-0.189	0.402	DKNQELEKEIEELKRKIWELEKKNQELER [4H3175-bH]
